# Laboratory results taken from article PMC9482650, “Quantitative fragmentomics allow affinity mapping of interactomes” (Nature Communications, 2022).
# T1: APBA2_1, Q99767
# T1 sequence (Q99767 563-664, limits assumed, looked up): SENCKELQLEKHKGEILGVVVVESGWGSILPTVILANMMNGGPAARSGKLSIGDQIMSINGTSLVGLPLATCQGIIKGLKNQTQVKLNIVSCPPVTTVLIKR
# T2: APBA2_2, Q99767
# T2 sequence (Q99767 654-744, limits assumed, looked up): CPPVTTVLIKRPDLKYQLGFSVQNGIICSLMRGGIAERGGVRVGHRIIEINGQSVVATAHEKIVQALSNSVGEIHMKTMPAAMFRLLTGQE
# T3: CARD11, Q9BXL7
# T3 sequence (Q9BXL7 662-765, limits assumed, looked up): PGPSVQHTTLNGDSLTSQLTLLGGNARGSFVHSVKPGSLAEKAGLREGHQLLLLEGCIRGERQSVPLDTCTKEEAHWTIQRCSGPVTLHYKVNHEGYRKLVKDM
# T4: DVL3, Q92997
# T4 sequence (Q92997 244-331, limits assumed, looked up): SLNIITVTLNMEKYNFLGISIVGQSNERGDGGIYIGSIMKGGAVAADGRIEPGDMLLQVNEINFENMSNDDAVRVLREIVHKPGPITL
# T5: FRMPD1, Q5SYB0
# T5 sequence (Q5SYB0 52-145, limits assumed, looked up): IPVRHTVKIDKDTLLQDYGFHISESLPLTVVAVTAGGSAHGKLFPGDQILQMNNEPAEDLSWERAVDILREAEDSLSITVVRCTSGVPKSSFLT
# T6: GRIP1_7, Q9Y3R0
# T6 sequence (Q9Y3R0 999-1096, limits assumed, looked up): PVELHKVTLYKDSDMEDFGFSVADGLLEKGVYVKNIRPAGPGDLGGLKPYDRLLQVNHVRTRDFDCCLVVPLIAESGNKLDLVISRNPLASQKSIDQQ
# T7: HTRA4, P83105
# T7 sequence (P83105 378-476, limits assumed, looked up): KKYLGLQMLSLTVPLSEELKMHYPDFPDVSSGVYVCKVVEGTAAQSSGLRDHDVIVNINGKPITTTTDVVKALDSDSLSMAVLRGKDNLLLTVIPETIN
# T8: LNX2_2, Q8N448
# T8 sequence (Q8N448 334-432, limits assumed, looked up): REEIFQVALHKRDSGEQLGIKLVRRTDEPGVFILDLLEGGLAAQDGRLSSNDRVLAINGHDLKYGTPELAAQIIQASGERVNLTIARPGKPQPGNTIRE
# T9: MPDZ_12, O75970
# T9 sequence (O75970 1857-1958, limits assumed, looked up): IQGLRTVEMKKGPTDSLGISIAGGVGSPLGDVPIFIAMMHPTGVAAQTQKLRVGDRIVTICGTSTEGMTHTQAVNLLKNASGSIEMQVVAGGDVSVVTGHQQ
# T10: MPP2, Q14168
# T10 sequence (Q14168 180-250, limits assumed, looked up): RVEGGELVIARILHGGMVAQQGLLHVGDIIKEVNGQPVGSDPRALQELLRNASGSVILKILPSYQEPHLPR
# T11: MPP7, Q5T2T1
# T11 sequence (Q5T2T1 134-230, limits assumed, looked up): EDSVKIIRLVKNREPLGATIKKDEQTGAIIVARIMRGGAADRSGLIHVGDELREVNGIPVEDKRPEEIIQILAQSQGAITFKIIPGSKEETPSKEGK
# T12: NHERF3_3, Q5T2W1
# T12 sequence (Q5T2W1 238-333, limits assumed, looked up): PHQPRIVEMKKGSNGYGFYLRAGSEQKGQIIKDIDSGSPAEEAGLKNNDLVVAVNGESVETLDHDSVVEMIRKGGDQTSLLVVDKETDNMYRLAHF
# T13: PDZD7_3, Q9H5P4
# T13 sequence (Q9H5P4 857-944, limits assumed, looked up): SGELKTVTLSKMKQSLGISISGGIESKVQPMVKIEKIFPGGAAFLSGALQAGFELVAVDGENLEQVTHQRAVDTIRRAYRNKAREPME
# T14: SNTG1, Q9NSN8
# T14 sequence (Q9NSN8 52-150, limits assumed, looked up): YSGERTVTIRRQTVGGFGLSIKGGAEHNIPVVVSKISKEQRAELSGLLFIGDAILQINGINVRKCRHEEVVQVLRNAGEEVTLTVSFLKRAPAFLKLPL
# T15: TIAM2, Q8IVF5
# T15 sequence (Q8IVF5 885-986, limits assumed, looked up): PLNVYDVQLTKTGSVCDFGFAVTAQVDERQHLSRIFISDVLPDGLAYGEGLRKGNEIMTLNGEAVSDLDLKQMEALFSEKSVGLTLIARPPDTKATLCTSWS
# B1: HDAC7, Q8WUI4 (peptide)
# chain: LVEEEEPMNL
# B2: DUSP5, Q16690 (peptide)
# chain: RSPVATATSC
# Molecular target: AHNAK1, Q09666
# Sequence (Q09666 4-100): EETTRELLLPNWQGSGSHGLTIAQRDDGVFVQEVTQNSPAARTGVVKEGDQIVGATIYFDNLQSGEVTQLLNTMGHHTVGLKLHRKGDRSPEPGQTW
# Assay: holdup assay
# Parameters: key: below the threshold = too weak to quantify, mostly under pKd 3.1 to 4
# Conditions: plain residues with an end cap or a label only (N-terminal biotin on a linker: ado-ado)
row,Binder,pKd
1,B1,below the threshold
2,B2,below the threshold

# Molecular target: T1, APBA2_1, Q99767
# Assay: holdup assay
# Parameters: key: below the threshold = too weak to quantify, mostly under pKd 3.1 to 4
# Conditions: plain residues with an end cap or a label only (N-terminal biotin on a linker: ado-ado)
row,Binder,pKd
1,B1,below the threshold
2,B2,below the threshold

# Molecular target: T2, APBA2_2, Q99767
# Assay: holdup assay
# Parameters: key: below the threshold = too weak to quantify, mostly under pKd 3.1 to 4
# Conditions: plain residues with an end cap or a label only (N-terminal biotin on a linker: ado-ado)
row,Binder,pKd
1,B1,below the threshold
2,B2,below the threshold

# Molecular target: ARHGEF12, Q9NZN5-2
# Sequence (Q9NZN5 other isoform, or with tags, fused parts or gaps): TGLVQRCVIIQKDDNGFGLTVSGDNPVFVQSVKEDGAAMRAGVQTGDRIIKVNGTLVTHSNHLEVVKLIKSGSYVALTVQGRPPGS
# Assay: holdup assay
# Parameters: key: below the threshold = too weak to quantify, mostly under pKd 3.1 to 4
# Conditions: plain residues with an end cap or a label only (N-terminal biotin on a linker: ado-ado)
row,Binder,pKd
1,B1,below the threshold
2,B2,4.26

# Molecular target: T3, CARD11, Q9BXL7
# Assay: holdup assay
# Parameters: key: below the threshold = too weak to quantify, mostly under pKd 3.1 to 4
# Conditions: plain residues with an end cap or a label only (N-terminal biotin on a linker: ado-ado)
row,Binder,pKd
1,B1,below the threshold
2,B2,below the threshold

# Molecular target: T4, DVL3, Q92997
# Assay: holdup assay
# Parameters: key: below the threshold = too weak to quantify, mostly under pKd 3.1 to 4
# Conditions: plain residues with an end cap or a label only (N-terminal biotin on a linker: ado-ado)
row,Binder,pKd
1,B1,below the threshold
2,B2,below the threshold

# Molecular target: T5, FRMPD1, Q5SYB0
# Assay: holdup assay
# Parameters: key: below the threshold = too weak to quantify, mostly under pKd 3.1 to 4
# Conditions: plain residues with an end cap or a label only (N-terminal biotin on a linker: ado-ado)
row,Binder,pKd
1,B1,below the threshold
2,B2,below the threshold

# Molecular target: T6, GRIP1_7, Q9Y3R0
# Assay: holdup assay
# Parameters: key: below the threshold = too weak to quantify, mostly under pKd 3.1 to 4
# Conditions: plain residues with an end cap or a label only (N-terminal biotin on a linker: ado-ado)
row,Binder,pKd
1,B1,below the threshold
2,B2,below the threshold

# Molecular target: GRIP2_3, Q9C0E4
# Sequence (Q9C0E4 238-339): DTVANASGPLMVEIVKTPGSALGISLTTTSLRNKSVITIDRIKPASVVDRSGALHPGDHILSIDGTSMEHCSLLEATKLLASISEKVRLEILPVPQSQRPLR
# Assay: holdup assay
# Parameters: key: below the threshold = too weak to quantify, mostly under pKd 3.1 to 4
# Conditions: plain residues with an end cap or a label only (N-terminal biotin on a linker: ado-ado)
row,Binder,pKd
1,B1,below the threshold
2,B2,below the threshold

# Molecular target: T7, HTRA4, P83105
# Assay: holdup assay
# Parameters: key: below the threshold = too weak to quantify, mostly under pKd 3.1 to 4
# Conditions: plain residues with an end cap or a label only (N-terminal biotin on a linker: ado-ado)
row,Binder,pKd
1,B1,3.94
2,B2,below the threshold

# Molecular target: Inadl_3, Q8NI35
# Sequence (Q8NI35 359-469): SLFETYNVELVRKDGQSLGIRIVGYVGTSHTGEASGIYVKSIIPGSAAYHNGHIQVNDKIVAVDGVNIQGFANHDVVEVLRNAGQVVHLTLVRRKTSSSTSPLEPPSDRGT
# Assay: holdup assay
# Parameters: key: below the threshold = too weak to quantify, mostly under pKd 3.1 to 4
# Conditions: plain residues with an end cap or a label only (N-terminal biotin on a linker: ado-ado)
row,Binder,pKd
1,B1,below the threshold
2,B2,below the threshold

# Molecular target: LIMK2, P53671
# Sequence (P53671 143-248): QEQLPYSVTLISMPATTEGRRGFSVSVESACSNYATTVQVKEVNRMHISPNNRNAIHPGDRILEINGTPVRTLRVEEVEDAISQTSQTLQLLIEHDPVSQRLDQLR
# Assay: holdup assay
# Parameters: key: below the threshold = too weak to quantify, mostly under pKd 3.1 to 4
# Conditions: plain residues with an end cap or a label only (N-terminal biotin on a linker: ado-ado)
row,Binder,pKd
1,B1,below the threshold
2,B2,below the threshold

# Molecular target: T8, LNX2_2, Q8N448
# Assay: holdup assay
# Parameters: key: below the threshold = too weak to quantify, mostly under pKd 3.1 to 4
# Conditions: plain residues with an end cap or a label only (N-terminal biotin on a linker: ado-ado)
row,Binder,pKd
1,B1,below the threshold
2,B2,3.75

# Molecular target: MAST2, Q6P0Q8
# Sequence (Q6P0Q8 1099-1202): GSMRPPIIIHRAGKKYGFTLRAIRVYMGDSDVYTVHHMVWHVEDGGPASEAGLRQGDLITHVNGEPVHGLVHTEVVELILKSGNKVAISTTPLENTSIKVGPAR
# Assay: holdup assay
# Parameters: key: below the threshold = too weak to quantify, mostly under pKd 3.1 to 4
# Conditions: plain residues with an end cap or a label only (N-terminal biotin on a linker: ado-ado)
row,Binder,pKd
1,B1,4.08
2,B2,4.22

# Molecular target: T9, MPDZ_12, O75970
# Assay: holdup assay
# Parameters: key: below the threshold = too weak to quantify, mostly under pKd 3.1 to 4
# Conditions: plain residues with an end cap or a label only (N-terminal biotin on a linker: ado-ado)
row,Binder,pKd
1,B1,below the threshold
2,B2,below the threshold

# Molecular target: T10, MPP2, Q14168
# Assay: holdup assay
# Parameters: key: below the threshold = too weak to quantify, mostly under pKd 3.1 to 4
# Conditions: plain residues with an end cap or a label only (N-terminal biotin on a linker: ado-ado)
row,Binder,pKd
1,B1,below the threshold
2,B2,below the threshold

# Molecular target: T11, MPP7, Q5T2T1
# Assay: holdup assay
# Parameters: key: below the threshold = too weak to quantify, mostly under pKd 3.1 to 4
# Conditions: plain residues with an end cap or a label only (N-terminal biotin on a linker: ado-ado)
row,Binder,pKd
1,B1,below the threshold
2,B2,below the threshold

# Molecular target: T12, NHERF3_3, Q5T2W1
# Assay: holdup assay
# Parameters: key: below the threshold = too weak to quantify, mostly under pKd 3.1 to 4
# Conditions: plain residues with an end cap or a label only (N-terminal biotin on a linker: ado-ado)
row,Binder,pKd
1,B1,below the threshold
2,B2,below the threshold

# Molecular target: T13, PDZD7_3, Q9H5P4
# Assay: holdup assay
# Parameters: key: below the threshold = too weak to quantify, mostly under pKd 3.1 to 4
# Conditions: plain residues with an end cap or a label only (N-terminal biotin on a linker: ado-ado)
row,Binder,pKd
1,B1,below the threshold
2,B2,3.72

# Molecular target: SCRIB_1, Q14160
# Sequence (Q14160 718-814): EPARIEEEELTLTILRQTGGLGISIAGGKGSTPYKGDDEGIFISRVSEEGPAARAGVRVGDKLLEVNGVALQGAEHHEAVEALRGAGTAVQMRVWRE
# Assay: holdup assay
# Parameters: key: below the threshold = too weak to quantify, mostly under pKd 3.1 to 4
# Conditions: plain residues with an end cap or a label only (N-terminal biotin on a linker: ado-ado)
row,Binder,pKd
1,B1,below the threshold
2,B2,below the threshold

# Molecular target: T14, SNTG1, Q9NSN8
# Assay: holdup assay
# Parameters: key: below the threshold = too weak to quantify, mostly under pKd 3.1 to 4
# Conditions: plain residues with an end cap or a label only (N-terminal biotin on a linker: ado-ado)
row,Binder,pKd
1,B1,below the threshold
2,B2,below the threshold

# Molecular target: T15, TIAM2, Q8IVF5
# Assay: holdup assay
# Parameters: key: below the threshold = too weak to quantify, mostly under pKd 3.1 to 4
# Conditions: plain residues with an end cap or a label only (N-terminal biotin on a linker: ado-ado)
row,Binder,pKd
1,B1,below the threshold
2,B2,4.09

# Molecular target: TJP1_2, Q07157
# Sequence (Q07157 181-274): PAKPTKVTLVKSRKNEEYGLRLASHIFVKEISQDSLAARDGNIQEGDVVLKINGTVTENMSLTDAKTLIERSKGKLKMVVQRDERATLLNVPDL
# Assay: holdup assay
# Parameters: key: below the threshold = too weak to quantify, mostly under pKd 3.1 to 4
# Conditions: plain residues with an end cap or a label only (N-terminal biotin on a linker: ado-ado)
row,Binder,pKd
1,B1,below the threshold
2,B2,below the threshold
